T1: TIAR RRM2L (UniProt Q01085 94-181)
T1 sequence: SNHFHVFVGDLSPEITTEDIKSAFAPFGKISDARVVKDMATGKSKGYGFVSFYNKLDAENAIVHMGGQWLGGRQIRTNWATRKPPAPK

T2: TIAR RRM12S (UniProt Q01085 8-175)
T2 sequence: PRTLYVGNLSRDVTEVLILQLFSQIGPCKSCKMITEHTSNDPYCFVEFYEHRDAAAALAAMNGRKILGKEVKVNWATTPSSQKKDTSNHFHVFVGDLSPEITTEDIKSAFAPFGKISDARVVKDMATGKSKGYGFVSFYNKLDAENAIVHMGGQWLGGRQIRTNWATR

T3: TIAR RRM1 (UniProt Q01085 1-94)
T3 sequence: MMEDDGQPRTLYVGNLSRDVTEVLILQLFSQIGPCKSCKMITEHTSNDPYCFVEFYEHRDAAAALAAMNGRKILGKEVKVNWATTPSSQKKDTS


Tests used:
TIAR RRM2L [1] = target: T1, TIAR RRM2L; test: SPR
TIAR RRM12S = target: T2, TIAR RRM12S; test: SPR
TIAR RRM2L [2] = target: T1, TIAR RRM2L; test: NMR
TIAR RRM1 = target: T3, TIAR RRM1; test: SPR

Binder | Kd (TIAR RRM2L [1]) [nM] | Kd (TIAR RRM12S) [nM] | binding result (TIAR RRM2L [2]) | binding result (TIAR RRM1)
TTTTTTTTTTTTTTTTTTTT (ssDNA) [T-rich DNA] | 66 ± 3 | 314 ± 2 |  | 
UUAUUU (ssRNA) [6-nt AU-rich RNA] |  |  | binds | 
GGGGGGUUUUUUUUUUUUUUUUUGGGGG (ssRNA) [U-rich RNA] | 200 ± 6 |  |  | no binding

Reference: publication PMC3710364
